In US20210292381A1:

Molecular target: purified MHC
Assay: competition with radiolabeled known MHC binding peptide for purified MHC

IC50 [µM] | Binder
1.99 | PYSQPESPYMQPQPF [P3d (modified gluten peptide …)]
0.879 | PYPHPWLRGPQPQPF [P3f (modified gluten peptide …)]

The remaining lines, values behind:

Binder | IC50 [µM]
KLPYPQGRLPGPQPQ [P2g (modified gluten peptide …)] | 3.75
LQLQPFWQPKLPGPQ [P1g (modified gluten peptide …)] | 11.2
LQLQPFDQPRLPWPQ [P1f (modified gluten peptide …)] | 5.44
PYPHPRLPYTQPQPF [P3c (modified gluten peptide …)] | 2.99
